Measured values taken from patent US20260167699A1 (Chugai, published 2026).

T1: FcγRIIa(R) extracellular domain, His-tagged (human, UniProt P12318 34-217)
T1 construct: extracellular domain; also called 2aR
T1 sequence: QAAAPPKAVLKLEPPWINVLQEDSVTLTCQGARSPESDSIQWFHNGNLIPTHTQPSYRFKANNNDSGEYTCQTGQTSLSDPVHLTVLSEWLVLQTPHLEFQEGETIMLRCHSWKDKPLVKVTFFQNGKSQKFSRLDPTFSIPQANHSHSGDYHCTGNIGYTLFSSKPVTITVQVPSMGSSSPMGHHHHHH

T2: FcγRIIa(H) extracellular domain, His-tagged (human, UniProt P12318 34-217)
T2 construct: extracellular domain; also called 2aH
T2 sequence: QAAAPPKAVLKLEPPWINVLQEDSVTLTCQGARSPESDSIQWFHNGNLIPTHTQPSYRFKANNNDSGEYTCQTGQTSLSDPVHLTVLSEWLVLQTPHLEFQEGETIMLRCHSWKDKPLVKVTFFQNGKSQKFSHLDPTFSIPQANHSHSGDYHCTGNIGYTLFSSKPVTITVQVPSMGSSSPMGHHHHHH

T3: FcγRIIb extracellular domain, His-tagged (human, UniProt P31994 43-217)
T3 construct: extracellular domain; also called 2b
T3 sequence: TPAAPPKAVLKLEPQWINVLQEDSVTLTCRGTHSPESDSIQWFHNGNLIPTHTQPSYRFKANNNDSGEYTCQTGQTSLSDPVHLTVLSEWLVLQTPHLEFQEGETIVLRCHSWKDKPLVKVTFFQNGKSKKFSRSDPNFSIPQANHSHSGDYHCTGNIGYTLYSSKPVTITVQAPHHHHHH


Key:
Experiment in all cases: SPR, vs GpH7-A5/GpH7-B3/GpL16-k0 =100
[1] = biological target: T4, FcγRIa extracellular domain, His-tagged (human, UniProt P12314 16-292)
T4 construct: extracellular domain; also called 1a

[2] = biological target: T1, FcγRIIa(R) extracellular domain, …
[3] = biological target: T2, FcγRIIa(H) extracellular domain, …
[4] = biological target: T3, FcγRIIb extracellular domain, His-tagged
[5] = biological target: T5, FcγRIIIa extracellular domain, His-tagged (human, UniProt P08637 17-208)
T5 construct: extracellular domain; also called 3a
T5 sequence (P08637 other isoform, or with tags, fused parts or gaps): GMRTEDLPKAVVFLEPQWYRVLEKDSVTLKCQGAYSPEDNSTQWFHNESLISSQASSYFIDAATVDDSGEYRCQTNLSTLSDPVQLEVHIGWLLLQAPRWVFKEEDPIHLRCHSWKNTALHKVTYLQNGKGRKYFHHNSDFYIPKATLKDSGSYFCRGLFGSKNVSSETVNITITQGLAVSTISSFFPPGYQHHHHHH

T4 sequence (P12314 other isoform, or with tags, fused parts or gaps): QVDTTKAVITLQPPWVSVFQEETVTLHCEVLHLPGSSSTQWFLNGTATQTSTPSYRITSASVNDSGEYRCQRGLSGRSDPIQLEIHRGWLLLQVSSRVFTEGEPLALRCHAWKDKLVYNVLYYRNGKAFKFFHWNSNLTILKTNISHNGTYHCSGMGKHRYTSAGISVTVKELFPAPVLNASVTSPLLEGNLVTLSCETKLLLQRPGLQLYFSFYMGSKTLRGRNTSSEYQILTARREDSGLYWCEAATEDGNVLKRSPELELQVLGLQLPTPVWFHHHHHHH

He/Con 1a [1] | He/Con 2aR [2] | He/Con 2aH [3] | He/Con 2b [4] | He/Con 3a [5] | Binder
108 % of control | 99 % of control | 94.4 % of control | 83.4 % of control | 88.3 % of control | GpH7-A5/GpH7-B3 variant L234_03V/GpL16-k0 (antibody, human IgG1, kappa) heavy 1: not shown heavy 2: not shown light: DIVMTQSPLSLPVTPGEPASISCQASESLVHSNRNTYLHWYLQKPGQSPQLLIYKVSNRFSGVPDRFSGSGSGTDFTLKISRVEAEDVGVYYCSQNTHVPPTFGQGTKVEIERTVAAPSVFIFPPSDEQLKSGTASVVCLLNNFYPREAKVQWKVDNALQSGNSQESVTEQDSKDSTYSLSSTLTLSKADYEKHKVYACEVTHQGLSSPVTKSFNRGEC
103 % of control | 104 % of control | 104 % of control | 83.2 % of control | 85.1 % of control | GpH7-A5/GpH7-B3 variant L234_05P/GpL16-k0 (antibody, human IgG1, kappa) heavy 1: not shown heavy 2: not shown light: DIVMTQSPLSLPVTPGEPASISCQASESLVHSNRNTYLHWYLQKPGQSPQLLIYKVSNRFSGVPDRFSGSGSGTDFTLKISRVEAEDVGVYYCSQNTHVPPTFGQGTKVEIERTVAAPSVFIFPPSDEQLKSGTASVVCLLNNFYPREAKVQWKVDNALQSGNSQESVTEQDSKDSTYSLSSTLTLSKADYEKHKVYACEVTHQGLSSPVTKSFNRGEC
104 % of control | 121 % of control | 133 % of control | 114 % of control | 114 % of control | GpH7-A5/GpH7-B3 variant L234_04F/GpL16-k0 (antibody, human IgG1, kappa) heavy 1: not shown heavy 2: not shown light: DIVMTQSPLSLPVTPGEPASISCQASESLVHSNRNTYLHWYLQKPGQSPQLLIYKVSNRFSGVPDRFSGSGSGTDFTLKISRVEAEDVGVYYCSQNTHVPPTFGQGTKVEIERTVAAPSVFIFPPSDEQLKSGTASVVCLLNNFYPREAKVQWKVDNALQSGNSQESVTEQDSKDSTYSLSSTLTLSKADYEKHKVYACEVTHQGLSSPVTKSFNRGEC
97.3 % of control | 98 % of control | 100 % of control | 92 % of control | 88.2 % of control | GpH7-A5/GpH7-B3 variant L234_18N/GpL16-k0 (antibody, human IgG1, kappa) heavy 1: not shown heavy 2: not shown light: DIVMTQSPLSLPVTPGEPASISCQASESLVHSNRNTYLHWYLQKPGQSPQLLIYKVSNRFSGVPDRFSGSGSGTDFTLKISRVEAEDVGVYYCSQNTHVPPTFGQGTKVEIERTVAAPSVFIFPPSDEQLKSGTASVVCLLNNFYPREAKVQWKVDNALQSGNSQESVTEQDSKDSTYSLSSTLTLSKADYEKHKVYACEVTHQGLSSPVTKSFNRGEC
107 % of control | 109 % of control | 96.4 % of control | 89.6 % of control | 82.9 % of control | GpH7-A5/GpH7-B3 variant L234_06M/GpL16-k0 (antibody, human IgG1, kappa) heavy 1: not shown heavy 2: not shown light: DIVMTQSPLSLPVTPGEPASISCQASESLVHSNRNTYLHWYLQKPGQSPQLLIYKVSNRFSGVPDRFSGSGSGTDFTLKISRVEAEDVGVYYCSQNTHVPPTFGQGTKVEIERTVAAPSVFIFPPSDEQLKSGTASVVCLLNNFYPREAKVQWKVDNALQSGNSQESVTEQDSKDSTYSLSSTLTLSKADYEKHKVYACEVTHQGLSSPVTKSFNRGEC
101 % of control | 142 % of control | 100 % of control | 172 % of control | 113 % of control | GpH7-A5/GpH7-B3 variant L234_09D/GpL16-k0 (antibody, human IgG1, kappa) heavy 1: not shown heavy 2: not shown light: DIVMTQSPLSLPVTPGEPASISCQASESLVHSNRNTYLHWYLQKPGQSPQLLIYKVSNRFSGVPDRFSGSGSGTDFTLKISRVEAEDVGVYYCSQNTHVPPTFGQGTKVEIERTVAAPSVFIFPPSDEQLKSGTASVVCLLNNFYPREAKVQWKVDNALQSGNSQESVTEQDSKDSTYSLSSTLTLSKADYEKHKVYACEVTHQGLSSPVTKSFNRGEC
95.2 % of control | 86.6 % of control | 77.6 % of control | 72 % of control | 72 % of control | GpH7-A5/GpH7-B3 variant L235_02A/GpL16-k0 (antibody, human IgG1, kappa) heavy 1: not shown heavy 2: not shown light: DIVMTQSPLSLPVTPGEPASISCQASESLVHSNRNTYLHWYLQKPGQSPQLLIYKVSNRFSGVPDRFSGSGSGTDFTLKISRVEAEDVGVYYCSQNTHVPPTFGQGTKVEIERTVAAPSVFIFPPSDEQLKSGTASVVCLLNNFYPREAKVQWKVDNALQSGNSQESVTEQDSKDSTYSLSSTLTLSKADYEKHKVYACEVTHQGLSSPVTKSFNRGEC
100 % of control | 82.6 % of control | 89.4 % of control | 67.7 % of control | 68.1 % of control | GpH7-A5/GpH7-B3 variant L234_13S/GpL16-k0 (antibody, human IgG1, kappa) heavy 1: not shown heavy 2: not shown light: DIVMTQSPLSLPVTPGEPASISCQASESLVHSNRNTYLHWYLQKPGQSPQLLIYKVSNRFSGVPDRFSGSGSGTDFTLKISRVEAEDVGVYYCSQNTHVPPTFGQGTKVEIERTVAAPSVFIFPPSDEQLKSGTASVVCLLNNFYPREAKVQWKVDNALQSGNSQESVTEQDSKDSTYSLSSTLTLSKADYEKHKVYACEVTHQGLSSPVTKSFNRGEC
106 % of control | 110 % of control | 101 % of control | 92.3 % of control | 99.5 % of control | GpH7-A5/GpH7-B3 variant L234_07I/GpL16-k0 (antibody, human IgG1, kappa) heavy 1: not shown heavy 2: not shown light: DIVMTQSPLSLPVTPGEPASISCQASESLVHSNRNTYLHWYLQKPGQSPQLLIYKVSNRFSGVPDRFSGSGSGTDFTLKISRVEAEDVGVYYCSQNTHVPPTFGQGTKVEIERTVAAPSVFIFPPSDEQLKSGTASVVCLLNNFYPREAKVQWKVDNALQSGNSQESVTEQDSKDSTYSLSSTLTLSKADYEKHKVYACEVTHQGLSSPVTKSFNRGEC
98.8 % of control | 87.2 % of control | 88.1 % of control | 68.9 % of control | 77.1 % of control | GpH7-A5/GpH7-B3 variant L234_19Q/GpL16-k0 (antibody, human IgG1, kappa) heavy 1: not shown heavy 2: not shown light: DIVMTQSPLSLPVTPGEPASISCQASESLVHSNRNTYLHWYLQKPGQSPQLLIYKVSNRFSGVPDRFSGSGSGTDFTLKISRVEAEDVGVYYCSQNTHVPPTFGQGTKVEIERTVAAPSVFIFPPSDEQLKSGTASVVCLLNNFYPREAKVQWKVDNALQSGNSQESVTEQDSKDSTYSLSSTLTLSKADYEKHKVYACEVTHQGLSSPVTKSFNRGEC
104 % of control | 130 % of control | 98.2 % of control | 134 % of control | 111 % of control | GpH7-A5/GpH7-B3 variant L234_10E/GpL16-k0 (antibody, human IgG1, kappa) heavy 1: not shown heavy 2: not shown light: DIVMTQSPLSLPVTPGEPASISCQASESLVHSNRNTYLHWYLQKPGQSPQLLIYKVSNRFSGVPDRFSGSGSGTDFTLKISRVEAEDVGVYYCSQNTHVPPTFGQGTKVEIERTVAAPSVFIFPPSDEQLKSGTASVVCLLNNFYPREAKVQWKVDNALQSGNSQESVTEQDSKDSTYSLSSTLTLSKADYEKHKVYACEVTHQGLSSPVTKSFNRGEC
97 % of control | 83.5 % of control | 97.1 % of control | 67.8 % of control | 76.8 % of control | GpH7-A5/GpH7-B3 variant L234_16H/GpL16-k0 (antibody, human IgG1, kappa) heavy 1: not shown heavy 2: not shown light: DIVMTQSPLSLPVTPGEPASISCQASESLVHSNRNTYLHWYLQKPGQSPQLLIYKVSNRFSGVPDRFSGSGSGTDFTLKISRVEAEDVGVYYCSQNTHVPPTFGQGTKVEIERTVAAPSVFIFPPSDEQLKSGTASVVCLLNNFYPREAKVQWKVDNALQSGNSQESVTEQDSKDSTYSLSSTLTLSKADYEKHKVYACEVTHQGLSSPVTKSFNRGEC
102 % of control | 125 % of control | 126 % of control | 131 % of control | 103 % of control | GpH7-A5/GpH7-B3 variant L234_20W/GpL16-k0 (antibody, human IgG1, kappa) heavy 1: not shown heavy 2: not shown light: DIVMTQSPLSLPVTPGEPASISCQASESLVHSNRNTYLHWYLQKPGQSPQLLIYKVSNRFSGVPDRFSGSGSGTDFTLKISRVEAEDVGVYYCSQNTHVPPTFGQGTKVEIERTVAAPSVFIFPPSDEQLKSGTASVVCLLNNFYPREAKVQWKVDNALQSGNSQESVTEQDSKDSTYSLSSTLTLSKADYEKHKVYACEVTHQGLSSPVTKSFNRGEC
103 % of control | 113 % of control | 134 % of control | 110 % of control | 126 % of control | GpH7-A5/GpH7-B3 variant L234_15Y/GpL16-k0 (antibody, human IgG1, kappa) heavy 1: not shown heavy 2: not shown light: DIVMTQSPLSLPVTPGEPASISCQASESLVHSNRNTYLHWYLQKPGQSPQLLIYKVSNRFSGVPDRFSGSGSGTDFTLKISRVEAEDVGVYYCSQNTHVPPTFGQGTKVEIERTVAAPSVFIFPPSDEQLKSGTASVVCLLNNFYPREAKVQWKVDNALQSGNSQESVTEQDSKDSTYSLSSTLTLSKADYEKHKVYACEVTHQGLSSPVTKSFNRGEC
102 % of control | 90 % of control | 86.8 % of control | 71.4 % of control | 69.8 % of control | GpH7-A5/GpH7-B3 variant L234_14T/GpL16-k0 (antibody, human IgG1, kappa) heavy 1: not shown heavy 2: not shown light: DIVMTQSPLSLPVTPGEPASISCQASESLVHSNRNTYLHWYLQKPGQSPQLLIYKVSNRFSGVPDRFSGSGSGTDFTLKISRVEAEDVGVYYCSQNTHVPPTFGQGTKVEIERTVAAPSVFIFPPSDEQLKSGTASVVCLLNNFYPREAKVQWKVDNALQSGNSQESVTEQDSKDSTYSLSSTLTLSKADYEKHKVYACEVTHQGLSSPVTKSFNRGEC
